Results from patent publication US20200299380A1 (published 2020).
Values belong to the binder of their own block, whether it stands above or below them.

Assays:
[1] = molecular target: T1, MICA*008 expressed at the cell surface (human, UniProt Q29983 24-297); assay: flow cytometry on C1R transfectant cells
T1 construct: also called C1R-MICA*008; C1R-MICA*08
T1 chain: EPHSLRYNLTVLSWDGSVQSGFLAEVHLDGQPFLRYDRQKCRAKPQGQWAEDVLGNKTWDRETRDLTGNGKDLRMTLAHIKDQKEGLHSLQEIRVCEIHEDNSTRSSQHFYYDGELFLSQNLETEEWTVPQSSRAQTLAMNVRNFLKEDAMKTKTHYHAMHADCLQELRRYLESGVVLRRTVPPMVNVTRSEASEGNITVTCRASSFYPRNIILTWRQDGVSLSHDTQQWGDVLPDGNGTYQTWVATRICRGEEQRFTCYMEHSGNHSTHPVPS
Procedure: The binding of antibodies obtained from the first, second and third immunization series (including CHG1-M-MIA-19E9, CHG1-M-MIA-9C10, CHG1-M-MIA-6E4, CHG1-M-MIA-20C6, CHG1-M-MIA-16A8, CHG1-M-MIA-12A10, CHG1-M-MIA-10A7, CHG1-M-MIA-18E8, CHG1-M-MIA-10F3, CHG1-M-MIA-15F9 and CHG1-M-MIA-14B4) were tested for binding to MICA-expressing CR1 transfectant cells C1R-MICA*001, C1R-MICA*004, C1R-MICA*007 and C1R-MICA*008 (Pr. A. Steinle, Eberhard-Karls University Tuebingen, Germany) described in Salih et al. (2003) Blood 102(4): […]. Binding was analyzed by flow cytometry.
Cells were harvested and stained in PBS 1×/BSA 0.2%/EDTA 2 mM buffer during 30 minutes at 4° C. using a dose-range of the anti-MICA mAbs. After two washes in staining buffer, cells were stained for 30 min at 4° C. with mouse anti-human IgG1-PE monoclonal antibodies (1/11). After two washes, stainings were acquired on a BD FACS Canto II and analyzed using the FlowJo software.

[2] = molecular target: T2, MICB-Fc (R&D Systems 1599-MB) (human, UniProt Q29980 23-298, limits assumed); assay: SPR, antibody injected over immobilized MICB-Fc
T2 construct: Bought; also called human MICB-Fc; not shown: Fc of the bought fusion protein
T2 sequence: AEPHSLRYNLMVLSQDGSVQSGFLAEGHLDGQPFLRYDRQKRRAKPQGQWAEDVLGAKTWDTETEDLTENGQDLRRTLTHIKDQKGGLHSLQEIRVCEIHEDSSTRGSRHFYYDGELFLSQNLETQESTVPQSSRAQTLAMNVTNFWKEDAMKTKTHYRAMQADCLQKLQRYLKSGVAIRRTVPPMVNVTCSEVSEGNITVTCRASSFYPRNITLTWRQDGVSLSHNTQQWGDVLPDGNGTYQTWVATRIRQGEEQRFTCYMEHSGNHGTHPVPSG
Procedure: For cross-binding study, the human ULBP-1-Fc (R&D systems*), MICB-Fc (*), ULBP-2-Fc (*) and ULBP-3-Fc (*) recombinant proteins were covalently immobilized respectively on the flow cell one to four of a CM5 sensorchip. Anti-MICA antibodies (at a constant concentration of 10 μg/ml) were injected for 2 minutes at a flow rate of 10 μl/min onto the four flow cells in parallel. After each cycle, Sensorchip was regenerated by a five second injection of appropriate regeneration buffer.

[3] = molecular target: T3, recombinant human MICA extracellular domain recombinant-Fc protein (MICA*019 allele, R&D Systems) (human, UniProt Q29983 24-297); assay: SPR solution competition experiment (MICA*019-Fc pre-incubated with antibody, NKG2D-Fc chip)
T3 construct: also called MICA*019-Fc; MICA-Fc; not shown: Fc of the bought fusion protein
T3 chain: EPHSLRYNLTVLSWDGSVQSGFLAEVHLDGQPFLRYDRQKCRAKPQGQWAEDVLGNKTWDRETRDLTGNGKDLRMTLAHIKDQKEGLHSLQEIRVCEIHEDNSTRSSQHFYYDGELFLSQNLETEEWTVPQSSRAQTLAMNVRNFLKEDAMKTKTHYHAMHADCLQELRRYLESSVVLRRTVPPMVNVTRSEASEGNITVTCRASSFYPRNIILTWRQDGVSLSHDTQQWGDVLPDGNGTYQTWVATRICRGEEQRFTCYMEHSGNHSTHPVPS
Procedure: SPR measurements were performed on a Biacore T100 apparatus (Biacore GE Healthcare) at 25° C. In all Biacore experiments HBS-EP+ buffer (Biacore GE Healthcare) served as running buffer, 10 mM NaOH, 500 mM NaCl served as regeneration buffer and sensorgrams were analyzed with Biaevaluation 4.1 and Biacore T100 Evaluation software.
For solution competition experiments, the human NKG2D-Fc (R&D systems) recombinant proteins were covalently immobilized onto a CM5 sensorchip. Soluble human MICA*01-BirA or human MICA*019-Fc (R&D systems) recombinant proteins at a constant concentration of 10 μg/ml were pre-incubated with a 5 to 10 molar equivalent excess of antibodies and injected for 2 minutes at a flow rate of 10 μl/min onto the NKG2D-Fc chip. After each cycle, Sensorchips were regenerated by a five second injection of appropriate regeneration buffer.

- binding result [1]: binds
B1: CHG1-M-MIA-6E4 (antibody, V domains shown)
VH: EVQLVESGGALVKPGGSLKLSCAASGFTFSYYAMSWVRQTPEKRLEWVATISRGGNYIYYTDSVKGRFTISRDNAKNTLYLQMTSLRSEDTAMFYCASISDYDGAWLAYWGQGTTLTVSS
VL: DVLMTQTPLSLPVSLGDQASISCRSSQSIIHTNGNTYLEWYLQKPGQSPKLLIYKISNRFSGVPDRFSGSGSGTDFTLKISRVEAEDLGVYYCFQGSHVPWTFGGGTKLEIKR
notes: also called chimeric anti-MICA 6E4

- binding result [2]: no binding (tested: 10 µg/ml)
B2: CHG1-M-MIA-20C6 (antibody, V domains shown)
VH: QITLKESGPGILKPSQTLSLTCSFSGFSLSTSGMGVGWIRQPSGKGLEWLAHIWWDDDKYYNPSLKSQLTISKDTSRNQVFLRITSVDTADTATYYCARRTQGYFDYWGQGTTLTVSS
VL: DIVMTQSPATLSVTPGDRVSLSCRASQSISDYLHWYQQKSHESPRLLIKYASQSISGIPSRFSGSGSGSDFTLSINSVEPEDVGVYYCQNGHSFPWTFGGGTKLEIKR
notes: also called chimeric anti-MICA 20C6

- binding result [3]: no binding
B3: CHG1-M-MIA-16A8 (antibody, V domains shown)
VH: EVQLVESGGGLVKPGGSLKLSCAASGFTFSRYAMSWVRQTPEKRLEWVATIFSGGSYTYYPDSVKGRFTISRDNANNTLYLQMSSLKAEDTAMYFCARPNWERTFDYWGQGTTLTVSS
VL: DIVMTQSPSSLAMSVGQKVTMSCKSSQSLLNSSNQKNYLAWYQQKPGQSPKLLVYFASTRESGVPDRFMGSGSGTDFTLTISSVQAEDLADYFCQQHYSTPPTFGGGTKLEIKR
notes: also called CHG1-M-MIA2-16A8; chimeric anti-MICA 16A8
